For assay [1], the target named is T1, GRP78 (soluble / recombinant protein) (UniProt P11021 19-654).
Assay [2] concerns the target T1, GRP78 (soluble / recombinant protein). The assay is described as follows: method not stated.

Consider one molecule from US20260242447A1 (CREATIVE BIOTHERAPEUTICS, published 2026).

T1 sequence (P11021 19-654 limits assumed): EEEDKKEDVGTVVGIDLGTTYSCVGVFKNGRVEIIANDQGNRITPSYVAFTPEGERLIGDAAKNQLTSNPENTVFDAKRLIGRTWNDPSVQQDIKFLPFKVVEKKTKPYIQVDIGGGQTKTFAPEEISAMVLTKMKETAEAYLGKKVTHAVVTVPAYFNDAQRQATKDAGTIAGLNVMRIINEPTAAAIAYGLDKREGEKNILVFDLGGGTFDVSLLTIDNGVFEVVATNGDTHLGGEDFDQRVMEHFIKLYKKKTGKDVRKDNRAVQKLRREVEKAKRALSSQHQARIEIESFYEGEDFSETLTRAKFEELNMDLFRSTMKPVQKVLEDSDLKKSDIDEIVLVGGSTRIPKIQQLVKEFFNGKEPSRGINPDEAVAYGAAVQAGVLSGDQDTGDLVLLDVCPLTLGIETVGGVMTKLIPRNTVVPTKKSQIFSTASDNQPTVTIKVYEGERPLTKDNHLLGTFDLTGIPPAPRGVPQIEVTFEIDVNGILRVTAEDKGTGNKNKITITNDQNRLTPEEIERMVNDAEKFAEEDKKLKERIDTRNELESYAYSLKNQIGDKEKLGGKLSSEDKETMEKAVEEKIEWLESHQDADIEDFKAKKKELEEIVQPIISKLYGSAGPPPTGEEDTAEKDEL

B1: K5 (5th kringle domain of human plasminogen) (other)
chain: SEEDCMFGNGKGYRGKRATTVTGTPCQDWAAQEPHRHSIFTPETNPRAGLEKNYCRNPDGDVGGPWCYTTNPRKLYDYCDVPQCAAPKS
notes: also called kringle 5
In general, IC50 refers to the concentration that inhibits the measured activity by half. A word on the Kd: it is a measure of binding affinity in units of concentration. As for B1, the IC50 in assay [1] was 460 nM. Besides, the Kd in assay [2] is 0.6 nM.
